The nanobody polyreactivity screen of Harvey et al. (2022)

Test: yeast display, Sf9 membrane polyspecificity reagent, FACS + sequencing; frameworks hold sequencing errors
In short: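 Polyreactivity labels are assigned by the sorting gate from which each nanobody was recovered. The gates were low and high (top ~1%), set on anti-HA fluorescence for expression and streptavidin fluorescence for reagent binding. Before sorting, galactose-induced (36–48 hours) yeast display cells were stained for 1 hour at 4 °C with 10% biotinylated, detergent-solubilized Sf9 membrane reagent.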

Sequence | polyreactivity (PSR sort gate)
QVQLVESGGGLVQAGGSLRLSCAASGRTFRYNAMGWYRQAPGKERELVAGIRWSGDRTYYADSVKGRFTISRDNAKNTVYLQMNSLKPEDTAVYYCNKVYHPGYGVRATYDYWGQGTQVTVSS | high polyreactivity
QVQLVESGGGLVQAGGSLRLSCAASGRTFRYYDMGRYRQAPGKERELVAAISSSGDRTYYADSVKGRFTISRDNAKNTVYLQMNSLKPEDTAVYYCAADRGARGDYWGQGTQVTVSS | high polyreactivity
QVQLVESGGGLVQAGGSLRLSCAASGSTFYIYVMGWYRQAPGKERELVARISSSGGSTYYADSVKGRFTISRDNAKNTVYLQMNSLKPEDTAVYYCNVDYGAWYDYWGQGTQVTVSS | low polyreactivity
QVQLVESGGGLVQAGGSLRLSCAASGFNFGYNALGRYRQAPGKEREMVAAISSGGSTYYADSVKGRFTISRDNAKNTVYLQMNSLQPEDTAVYYCAVELGYPIQSYALWWDFEYWGQGTQVTGSS | low polyreactivity
QVQLVESGGRLVQAGGSLRLSCAASGRTFVSYAMGWYRQAPGKERELVATITGSTGGTYYADSVKGRFTISRDNAKNTVYLQMNSLKPEDTAVYYCNKDYYYNPGNVASGYDYWGHGTQVTVSS | low polyreactivity
QVQLVESGGGLVQAGGSLRLSCAASGSTFTYNTLVWYRQAPGKERELVAAISWGGGGTYYADSVKGRFTISRDNAKNTVYLQMNSLKPEDTAVYYCNADPWWDYGTFDYWGQGTQVTVSS | low polyreactivity
QVQLVESGGGLVQAGGSLRLSCAASGRILIRYAMGWYRQAPGKERELVASISTRGASTSYADSVKGRFTISRDNAKNTVYLQMNSLKPEDTAVYYCNARGSYPPYRSYGYWGQGTQVTVSS | low polyreactivity
QVQLVESGGGLVQAGGSLRLSCAASGFTFTRYAKGWYRQAPGKERELVAAISQNGGSTYYADSVKGRFTISRDNAKNTVYLQMNSLKPEDTAVYYCYAGVRRTIAFDYWGQGTQVTVSS | high polyreactivity
QVQIVESGGGLVQAGGSLRLSSASSGRTLRQYAMGWYRPAHWKERDLVAAIRTNGGRTYYADSVMRRFTISRVNSKNTVYLQMNSLKPEDTAVYYCAVYAVVLGVLFDYWGQGTQVTVSS | high polyreactivity
QVQLVESGGGLVQAGGSLRLSCAASGIIFDYYAMGWYRPAPGKERELVAAINSGSGSTYYADSVKGRFTISRDNAKNTVYLQMNSLKPEDTAVYYCAADGLSATLTWYSYDYWGQGTQVTVSS | low polyreactivity
QVQLVESGGGLVQAGGSLRLSCAASGSIFQYYAMGWYRQAPGKERELVAAISSGDTTNYADSVKGRFTISRDNAKNTVYLQMNSLKPEDTAVYYCNAEGGWYDWDDYWGQGTQVTVSS | low polyreactivity
QVQLVESGGGLVQAGGSLRLSCAASGGIFWTYAMGWYRQEPGKERELVAAISYSDGITYYADSGKGRFTISRDNAKNTVYFQMYSLKPEDTAVYYCAADPELAVPMYYWGQGTQVTVSS | low polyreactivity
QVQLVESVGGLVQAGGSLRLSCAASGSIFRNYAMGWYRQAPGKERELVAAITYRGGTTYYADSVKGRFTISRDNAKNTVYLQMNSLKPEDTAVYYCNTASVSRLYGEYDYWGQGTQVTVSS | high polyreactivity
QVQLVESGGGLVQAGGSLRLSCAASGFTFIPYAMGWYRQAPGKERELVASITYSGGRTYYADSVKGRFTISRDNAKNTVYLQMNSLKPEDTAVYYCNARSWGGYYHWGQGTQVTVSS | high polyreactivity
QVQLVESGGGLVQAGGSLRLSCAASGRIFGSYAMGWYRQAPGKERELVAAISGSGSRTYYADSVKGRFTISRDNAKNTVYLQMNSLKPEDTAVYYCNKYRFRVYPFGYWGQGTQVTVSS | high polyreactivity
QFQLVESVGGLVQAGGSLRLSCAASGFIFGGYAMGWYIKAPGKERELVAAISSSGGSTYYADSVKGRFTISRDNAKNTVYLQMNSLKPEDTAVYYCAKVGWSRRYYYWGQGTQVTVSS | high polyreactivity

Sequence | polyreactivity (PSR sort gate)
QVQLVESGGGLVQAGGSLRLSCAASGSTFDHNVMGWYRQAPGKERELVAAISGSGGSTYYADSVKGRFTISRDNAKNTVYLQMNSLKPEDTAVYYCAARYYVGHRGYYSWGQGTQVTVSS | high polyreactivity
QVQLVESGGGLVQAGGSLRLSCAASGSIFPIYAMGWSRQPPGKESELVAPISRGGSTNYADSVKGRFTISRDNAKNTVYLQMNSLKPEDTAVYYCAAQSRVFSTWGSTGEYYYWGQGTQVTVSS | low polyreactivity
QVQLVDSGGGLVQAGGSLRLSCDASGSTFKWYAMGWYRQAPGKERELVAAISWTGASTYYADSVKGRFTISRDNGKNTVYLQMNSLKPEDTAVYYCAADRTYYAMLWTGRSRYDYWGQGTQVTVSS | high polyreactivity
QVQLVESGGGLVQAGGSLRLSCAASGLTLYRYAMGWYRQPPGKEREMVAGISWGGGSTYYADSVKGRFTISRDNAKNTVYLQMNSLKPEDTAVYYCAAGRLLYIPRYYYWGQGTQVTVSS | high polyreactivity
QVQLVESGGGLVQAGGSLRLSCAASGRTISYAMGWYRQAPGKERELVAAIRYRGGSTYYADSVKGRFTISRDNAKNTVYLQMNSLKPEDTADYYCDAQDSYTPPILFRRGYLRYDYWGQGTQVTVSS | low polyreactivity
QVQLVESVGGFVQAGGSLRLSSAASGFIFRSYAMGSYRQAPGKERELVAVISRRGVNTHYADSVKGRFTISRDYAKYTVYLQMNSLKPEDTAVYDCAKGLTALGDYWGQGSQVTVSS | high polyreactivity
QVQLVESGGGLVQAGGSLRLSCAASGGTFSRNVMGCYRPAPGKERELVSAISRRGSSTYYADSVKGRFTISRDNAKNTVFLQMNSLKPEDTAVYYCARDQFTGADEAGDDYWGQGTQVTVSS | high polyreactivity
QVQLVESGGGLVQAGGSLRLSCADSGRTIPFYAMGWYRQAPGKERELVAAISSSAGRTYYADSVKGRFTISRDNAKNTVSLQMNSLKPEDTAVYYCAARLYGRYRYDYWGQGTQVTVSS | low polyreactivity
QVQLVESGGGLVQAGGSLRLSCAASGRTFRTYTMGWYRQAPGKEREFVAAINKSGGTTNYADSVKGRFTISRDNAKNTVYLQMNSLKPEDTAVYYCAKRGRSTYGYDYWGQGTQVTVSS | high polyreactivity
QVQLQESGGGLVQAGGSLRMSCASSGTIFRISDMGSYRQAPGKDSEFVAAITYGANTYYADSGKGRFTISRDNAKNTVYLQMNSLKPEDTAVYYCAVPPVKETILDYWGQGTQVTVSS | low polyreactivity
QVQLVESGGGLVQAGGSLRLSCAASGSIFDFYAMGWYRQAPGKERELVAAITWSGDTTYYADSVKGRFTISRDNAKNTVYLQMNSLKPEDTAVYYCAAEGWYWWYGRDYYWGQGTQVTVSS | high polyreactivity
QVQLVESGGGLVQAGGSLRLSCAASGGTFSKYAMGWYRQAPGKEREFVAAITVSGGGTYYADSVKGRFTISRDNAKYTVYLQMNSLKPEDTAVYDCAADLAWTASDYWGQVTQVTVSS | low polyreactivity
QVQLVESGGGLVQAGGSLRLSCAASGRTFWDYGMGWYRQAPGKERELVATISGNGGDTYYADSVKGRFTISRDNAKNTVYLQMNSLKPEDTAVYYCAADYRFYRTDRHYDYWGQGSQVTVSS | low polyreactivity
QVQLVESGGGLVQAGGSLRLSCAASGRIFATYAMGWYRQAPGKERELVARITFTSGSTYYADSVKGRFTISRDNAKNTVYLQMNSLKPEDTAVYYCAAPWSVTRTSFDYWGQGTQVTVSS | high polyreactivity
QVQLVESGGGLVQAGGSLSLSCAASGFTYRLYTMGWYRQAPGKERELVAGISTSGGSTYYADSVKGRFTISRDNAKHTVYLQMNSLKPEDTAVYYCAAQAFTSYDYWGQGTQVTVSS | high polyreactivity
QVQLVESGGGLVQAGGSLRLSCAASGLIFVGNAMGWYRQAPGKERELVAAISASTDNTYYADSVKGRFTISRDNAKNTVYLQMISLKPEDTAVYYCNAEQSRNSGKHDYWGQGTQVTVSS | low polyreactivity
